Data on 15 sequences can be found in the DeepSol protein solubility set.

This data set is described as follows: soluble on expression in E. coli; label from the status in PepcDB or PDB records.
Take “MVRDMRFCYRCGISEEEGGPLINGLCQVCFRKENPVLLLPSEINTELCQNCGSYKKRGVWVDPKNYELEALIFEVAENALLEALEDNLKVKDFEVVNWEELDEISEIPVGKAFVAYRVVDYHIEYFPAIVIYEVRSKARIHELQVEPHDERTTVTVYVRQTVCPRCQKFLAGYYEAILQVRVEGREFTKEEREEITKLVQEKVDEIMKRDRMGFIQDTIEKEEGIDFYMGSTSAARKLANAIREKYGGTISEAYELVGMDRQTSREVYRTSVTVRLPKFRKGDVVEDRYGRVYEVEEVNGKGMRLKNLETWKSEHYDWKTIKRERVDLANYEEKKAMLVSKTPSEVQFMDMETYETFEVKKPTDELKEGEVYTVVRVKGRMYVKEEVKELEHHHHHH”: the “soluble on expression in E. coli” value was “soluble”.
For “MAHHHHHHMSDNFFIPTFEHIYEQSIPPPLIKHSRKCKNYNKKRKNIIKYTSQDICVEQRNYDKENKEHKYVCINFHTFNKKCYHKNIRLLDHTHLDFTLGESLMYLLNAIIEVISKLKEGKEYKWNIKGKLINSKKENNIQIVYIENAFLSFKSIVLHAPLLKIKSIDI”, the “soluble on expression in E. coli” value is listed as “not soluble”.
On to “MSLDIKVQKTEDLIPYEKNPRHNEGAITAVAKSIEKFGFKVPIVVDASNVIVNGHTRLKAAKYLGLKEVPTIIADDLTPEQIKAFRLADNKVGEIATWDEELLNAELDELADLDLDFDMTEFGFDLPDIEGEEVEVIEDEFEEELPAEPISKLGDIYQLGRHRLMCGDSTNSLEVEKLMGNKKADLLITDPPYNVAYEGKGKEALTIKNDSKETNEFHSFLYEAFSAAINNMKLGSSFYVWYASSEVVNFHTALEEAGFLVKQELIWNKNSMVLSRQDYHWKHEPCLYGWASGGSHSWYSDRKQTTILNFDRPTVNKEHPTMKPVALFDYQIKNSSKQGDCILDLFGGSGTTLIACEQNEREAYLMELDPRYVDVIIARWEAFTGEVAVKISGNDTAVVDGEGHHHHHH”, for which the “soluble on expression in E. coli” value was “soluble”.
In the case of “AKKLKKEYLDWYNQILEFSNLSNNSVKIDTPFKDNSLDNLKIYALYDQSRDMITLTDDGYTIFGLENNGVSINKFKKRKKIFEEHLSAYGIKYNDKTHEIFVQTNFKNFNKSKHNLLQCLIFVNDMYLLSNPKSQNIFTEDVANKLDEHNIYYGRDIPIIGSSGVVHNFDFFISAKKNQKEKFINVFSNPNNSMIIKSKITDAMQAKKIKRHRQNEFIFILNDSKKEINEHNKNLLHENYISTIDYSELDEKIGLL”, the “soluble on expression in E. coli” value was “not soluble”.
In the case of “MSTCPIDPPALRAAFAGPLDPQHAEVLLSRYDQHASRLLDALHALYGQRADYASWLAQWLGEVGDIARQRPQALQTLDSTRHAGWFGQPHMLGYSAYADRFAGTLQGVAERVPYLQELGVRYLHLLPFLRARAGDNDGGFAVSDYGQVEPSLGSNDDLVALTSRLREAGISLCADFVLNHTADDHAWAQAARAGDARYLDYYHHFADRTVPDRYEATLGQVFPHTAPGNFTWVDDTAQWMWTTFYPYQWDLNWSNPAVFGDMALAMLRLANLGVEAFRLDSTAYLWKRIGTDCMNQSEAHTLLVALRAVTDIVAPAVVMKAQAIVPMTQLPPYFGSGVDEGHECHLAYHSTLMAAGWSALALQRGDILHNVIAHSPPLPRHCAWLSYVRCHDDIGWNVLQHEACGNAAQPPFSLRDVARFYANAVPGSYARGESFQSSGDGVHGTNGMAAALAGIQAAQEAGDAAALAVAVDRLVLLYAIALAMPGVPLIYMGDELAMVNDPGYRDDPHRQHEGRWLHRPAMDWQLAAQRHDAKSLSGTVYRRLRGLIRQRAALGALAADQALASIALNDPRVFALTRGDSFIALHNFSDQLLDVELAAIGVDGWTLLAIDDAIGGAAARGDGSIVLPPYGVRWLQRGTEHAPE”, the “soluble on expression in E. coli” value is given as “soluble”.
With “MSLTVNNEISKAFSKHADDYERVAKVQKEIGSRLFERLQYLKIAPRRILDLGCGPGFFSKELALLYPKAQIVGMDLSFAMLEQARKKQGWRRKWPLVSADMQKMPFATGAFDLVFANQVIHWSSSLGMVFRELNRVMNVNGCLMFTTLGPDTFKELQTAWSAANQYAHVNEFVDMHDIGDCLIAEHFMDPVIDMELLSIHYETLPQLLLALKTQGVRNINPKRNHGLTGKSAWKQFEAQYATMRTTTGKYPLTYEVVYGQAWKGAQRKMEQGEGHHHHHH”, the “soluble on expression in E. coli” value is “not soluble”.
“MKHWRPFRFPPLIDGAPLAPDAAAEVQASAADGFRQGMDAGYREGFDSGEAAGRDAGYQAGLEQGRAEGAAAARAETLAGLETLGAPLAAAIEQLNKLCRDYQAAQRDEVVDLVAKVARQVIRCELALKPVQILDLVEETLAALPQGAHSQGEVEVLLNPEECQRIRELAPERAAQWKLSADPSLAPGECRLRGAEFEADAGCQQRLERCVDSLREQLAAEEG”: the “soluble on expression in E. coli” value is “not soluble”.
As for “MNPLFFLASPFLYLTYLIYYPNKGSFVSKPRNLQKMSSEPFKNVYLLPQTNQLLGLYTIIRNKNTTRPDFIFYSDRIIRLLVEEGLNHLPVQKQIVETDTNENFEGVSFMGKICGVSIVRAGESMEQGLRDCCRSVRIGKILIQRDEETALPKLFYEKLPEDISERYVFLLDPMLATGGSAIMATEVLIKRGVKPERIYFLNLICSKEGIEKYHAAFPEVRIVTGALDRGLDENKYLVPGLGDFGDRYYCV”, the “soluble on expression in E. coli” value was “not soluble”.
With “WQYMFYSALSIFVSGKVTDAVYTKQKKMQVMIVTKNPDRVVDEIQKKMRRGITIIHEAEGAYRHDRQTVLLTIVTRFELPSLEAAMKESDPNAFVSISDNVKILGRFYEEDYK” the entry was “not soluble”; with “MGSDKIHHHHHHMAVKTIRTLAHFITACSEIKVKDDHTLFYRGHASDIYTPFPTIFRNQNDDPKKSRYIESEGELFHNLVTQCPEEFKDCTSTFDFLVKMQHYGLPTRLLDITSNPLVALYFACCTLIPESTKDKNAKNGQVLVYQVPNEEIKYYNSDTVSVISNLARVNTSFNFTDEEDRERFLHSIQAEKPYFKPYIKEAHLHSVICVKPKLDNRRIVKQSGAFFLFGMGKNKTDSIRISDKYRPDIKHIDIPKSSKETLLRELATLSISEATLFPEIDNVARFLKKEVKIKSLVVEEIEEEKLGNEISVAYQEFILNSLVLNTDLLEQIQHNSADRAMLGLYPELLQKAIIESQENYNEIALKLLVEEDSADKFAKNIFSKLKHKLEELS”, “not soluble”; with “MGSDKIHHHHHHMLDLKSYREKELASYDLDVELFNEFNFSVYNVMPLRKAFLISTDKGEKILKKIDYTIEEFKFVLAAVNYIKNENEFNRIIDFNKTQSGEYYCIKNGDLYCVMDMIEGKECEFSNPVDLSISSFGLGQLHSASEGFRYSKIASKNICGKMIKGFKRKKEEVNFLKKMVNLYESLNEFDEIFIKNVDYYLEQIDKSIDIMNKSQYYKLCSEEDKIVLCHHDLAHHNIIIKDEEAYFIDFDYAIIDLKVHDLSNIISKAAKVFNYSIDNSKIIISNYCKSNTLSKNEMEVLFGMLSFPEDFYEIVKSYYTKRKDWSNEEFINKMKRKMANEENRVEFLKNFKEDLKI”, “not soluble”.
Under “MSEFDFDVVVVGAGAVGLACGYALSRRGLVVAVLEEQGRIGEGVSSRNSEVIHGGLYYPTGSLKAKLCVQGRRALYAFCDAHKVPYKKCGKLVVATSEDEIARLDTIWEQALANDVEGMERLTGAQARALEPGLNAHAALLSPESGVFASHDYMLALQGEIEAAGGAVVLSTPFEGAEPLAGGGFRVRAGGAEPTDLTCRLLVTAPGLSSQAVAGRIEGYPAEQIPKAHFGKGIYFRLSGKAPFQRLIYPPPIHGALGTHYRNDMGGQAVFGPDLEYVAAPDYSVDPAKADAFAAYIRKFWPDLPADRLVPDYAGVRPKLHGPGEPQPDFQLRGVEDHGLAGLMALFGIESPGLTSSLAIGETVAERLCGASLEHHHHHH” stands “soluble”.
In the case of “SNANFNRFTQRAKKAIDLAFESAKSLGHNIVGSEHILLGLLREEEGIAAKVLSKVGFTEAYLEGKIVDMEGKGEEISEDIVLSPRSKQILELSGMFANKLKTNYIGTEHILLAIIQEGEGIANKILNYAGVNDRTLAQLTIDMMG”, the “soluble on expression in E. coli” value is “soluble”.
With “MSGEDDYNSDDEANKNLSKKELQELKRKQQKSKKKKESKKRAKATKQAEIETREEPKKEEENGDDLDVEIDYIGETIEIEPDNPHAQYFSAIFDAFKISTDSEDGFSYGHHVSKGEKKDDLGKVGQAERIIQEEMEERAKENTEEKLSRRKLRISLQPSIAKLKETTLRADVVEWADVTSRDPYLLVAMKSYRNSVPVPRHWNAKRKYLAGKRGFERPPFELPDFIKRTGIQDMREALLEKEESQSLKSKMRERARPKLGKIDIDYQKLHDAFFKWQTKPAMTKMGELYYEGKEMEAMMRDKKPGEMSDELRIALGMPIGSNAFKFPPPWLIAMQRYGPPPSFPHIKIPGLNAPIPEGCAFGYHAGGWGKPPVDEYGHPLYGDVFGLAAPAFEPEDESQIERRYWGEIGSDESSDEEESEEEEHADDDDADVEGGFQTPAPVEGMITPSGMTTGITGIETPDTIELRKGKESSVLGTDTPAAAYHIIPEKKNERIGGQMMASSHTYDLSKKHAVRDDGVQISLDPESIDMDEQGLAARYEEQLRKQKHRDDDDEDREDLTDMVAEHAAKQNRKRKVQDDKKNKTSSSSSSGSSGKKHKDFKF” the entry was “not soluble”; with “MGSDKIHHHHHHMRNMQEKGVSEKEILEELKKYRSLDLKYEDGNIFGSMCSNVLPITRKIVDIFLETNLGDPGLFKGTKLLEEKAVALLGSLLNNKDAYGHIVSGGTEANLMALRCIKNIWREKRRKGLSKNEHPKIIVPITAHFSFEKGREMMDLEYIYAPIKEDYTIDEKFVKDAVEDYDVDGIIGIAGTTELGTIDNIEELSKIAKENNIYIHVDAAFGGLVIPFLDDKYKKKGVNYKFDFSLGVDSITIDPHKMGHCPIPSGGILFKDIGYKRYLDVDAPYLTETRQATILGTRVGFGGACTYAVLRYLGREGQRKIVNECMENTLYLYKKLKENNFKPVIEPILNIVAIEDEDYKEVCKKLRDRGIYVSVCNCVKALRIVVMPHIKREHIDNFIEILNSIKRD”, “not soluble”.
